Assay results published in the supplement of paper PMC10567573.

B1: MNAT1 (parent)
chain: SLREYNDFLEEVEEIVFNLTNNVD
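Also: lentivirally expressed fusions sorted by FACS into six bins by GFP to DsRed ratio, PSI derived from sequencing read proportions per bin multiplied by bin number.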

Variants of: B1
Assay: protein stability index of a GFP-peptide fusion (GPS, HEK-293T) (PSI 1-6); higher = more stable
Conditions: c terminus: a fixed tail appended
With SLREYNDFLEEYEEIVFNLTNNVD [V12Y] the protein stability index was 3.04. Work on SLREYNDFLEEVAEIVFNLTNNVD [E13A] yielded a protein stability index of 1.77. Variant SLREYNDFLEEVCEIVFNLTNNVD [E13C] has a protein stability index of 2.34. SLREYNDFLEEVDEIVFNLTNNVD [E13D] gave a protein stability index of 2.87. Variant SLREYNDFLEEVFEIVFNLTNNVD [E13F] has a protein stability index of 2.27. Work on SLREYNDFLEEVGEIVFNLTNNVD [E13G] yielded a protein stability index of 2.43. For SLREYNDFLEEVHEIVFNLTNNVD [E13H], the protein stability index was 2.15. With SLREYNDFLEEVIEIVFNLTNNVD [E13I] the protein stability index was 2.58. SLREYNDFLEEVKEIVFNLTNNVD [E13K] showed a protein stability index of 2.69. Variant SLREYNDFLEEVLEIVFNLTNNVD [E13L] has a protein stability index of 2.5. For SLREYNDFLEEVMEIVFNLTNNVD [E13M], the protein stability index was 2.94. With SLREYNDFLEEVNEIVFNLTNNVD [E13N] the protein stability index was 2.37. In the case of SLREYNDFLEEVPEIVFNLTNNVD [E13P], the protein stability index is reported as 3.69. SLREYNDFLEEVQEIVFNLTNNVD [E13Q] showed a protein stability index of 1.93. For SLREYNDFLEEVREIVFNLTNNVD [E13R], the protein stability index was 1.87. In the case of SLREYNDFLEEVSEIVFNLTNNVD [E13S], the protein stability index is reported as 1.74. Work on SLREYNDFLEEVTEIVFNLTNNVD [E13T] yielded a protein stability index of 1.58. Work on SLREYNDFLEEVVEIVFNLTNNVD [E13V] yielded a protein stability index of 2.87. Work on SLREYNDFLEEVWEIVFNLTNNVD [E13W] yielded a protein stability index of 2.52. SLREYNDFLEEVYEIVFNLTNNVD [E13Y] gave a protein stability index of 1.63. For SLREYNDFLEEVEAIVFNLTNNVD [E14A], the protein stability index was 1.82. In the case of SLREYNDFLEEVECIVFNLTNNVD [E14C], the protein stability index is reported as 2.24. In the case of SLREYNDFLEEVEDIVFNLTNNVD [E14D], the protein stability index is reported as 2.88. SLREYNDFLEEVEFIVFNLTNNVD [E14F] showed a protein stability index of 2.82. For SLREYNDFLEEVEGIVFNLTNNVD [E14G], the protein stability index was 2.34. In the case of SLREYNDFLEEVEHIVFNLTNNVD [E14H], the protein stability index is reported as 2.19. Variant SLREYNDFLEEVEKIVFNLTNNVD [E14K] has a protein stability index of 1.87. SLREYNDFLEEVELIVFNLTNNVD [E14L] showed a protein stability index of 2.12. For SLREYNDFLEEVEMIVFNLTNNVD [E14M], the protein stability index was 2.22. With SLREYNDFLEEVENIVFNLTNNVD [E14N] the protein stability index was 2.11. SLREYNDFLEEVEPIVFNLTNNVD [E14P] showed a protein stability index of 3.38. For SLREYNDFLEEVEQIVFNLTNNVD [E14Q], the protein stability index was 2.46. Variant SLREYNDFLEEVERIVFNLTNNVD [E14R] has a protein stability index of 2.15. Variant SLREYNDFLEEVESIVFNLTNNVD [E14S] has a protein stability index of 2.26. Variant SLREYNDFLEEVETIVFNLTNNVD [E14T] has a protein stability index of 1.87. SLREYNDFLEEVEVIVFNLTNNVD [E14V] gave a protein stability index of 1.61. SLREYNDFLEEVEWIVFNLTNNVD [E14W] gave a protein stability index of 1.75. With SLREYNDFLEEVEYIVFNLTNNVD [E14Y] the protein stability index was 2.6. Work on SLREYNDFLEEVEEAVFNLTNNVD [I15A] yielded a protein stability index of 3.78. With SLREYNDFLEEVEECVFNLTNNVD [I15C] the protein stability index was 3.63. With SLREYNDFLEEVEEDVFNLTNNVD [I15D] the protein stability index was 4.82. Variant SLREYNDFLEEVEEEVFNLTNNVD [I15E] has a protein stability index of 4.66. For SLREYNDFLEEVEEFVFNLTNNVD [I15F], the protein stability index was 2.23. With SLREYNDFLEEVEEGVFNLTNNVD [I15G] the protein stability index was 4.71. In the case of SLREYNDFLEEVEEHVFNLTNNVD [I15H], the protein stability index is reported as 3.9. Work on SLREYNDFLEEVEEKVFNLTNNVD [I15K] yielded a protein stability index of 4.08. SLREYNDFLEEVEELVFNLTNNVD [I15L] gave a protein stability index of 1.9. For SLREYNDFLEEVEEMVFNLTNNVD [I15M], the protein stability index was 2.51. SLREYNDFLEEVEENVFNLTNNVD [I15N] showed a protein stability index of 4.25. For SLREYNDFLEEVEEPVFNLTNNVD [I15P], the protein stability index was 4.71. SLREYNDFLEEVEEQVFNLTNNVD [I15Q] showed a protein stability index of 3.87. With SLREYNDFLEEVEERVFNLTNNVD [I15R] the protein stability index was 3.84. For SLREYNDFLEEVEESVFNLTNNVD [I15S], the protein stability index was 3.89. With SLREYNDFLEEVEETVFNLTNNVD [I15T] the protein stability index was 3.77. In the case of SLREYNDFLEEVEEVVFNLTNNVD [I15V], the protein stability index is reported as 3.31. For SLREYNDFLEEVEEWVFNLTNNVD [I15W], the protein stability index was 2.16. With SLREYNDFLEEVEEYVFNLTNNVD [I15Y] the protein stability index was 3.35. With SLREYNDFLEEVEEIAFNLTNNVD [V16A] the protein stability index was 3.36. With SLREYNDFLEEVEEICFNLTNNVD [V16C] the protein stability index was 3. SLREYNDFLEEVEEIDFNLTNNVD [V16D] showed a protein stability index of 4.87. SLREYNDFLEEVEEIEFNLTNNVD [V16E] gave a protein stability index of 4.36. SLREYNDFLEEVEEIFFNLTNNVD [V16F] showed a protein stability index of 1.75. Work on SLREYNDFLEEVEEIGFNLTNNVD [V16G] yielded a protein stability index of 3.86. SLREYNDFLEEVEEIHFNLTNNVD [V16H] gave a protein stability index of 3.86. SLREYNDFLEEVEEIIFNLTNNVD [V16I] showed a protein stability index of 2.46. Work on SLREYNDFLEEVEEIKFNLTNNVD [V16K] yielded a protein stability index of 2.84. SLREYNDFLEEVEEILFNLTNNVD [V16L] showed a protein stability index of 1.14. SLREYNDFLEEVEEIMFNLTNNVD [V16M] gave a protein stability index of 2.51. For SLREYNDFLEEVEEINFNLTNNVD [V16N], the protein stability index was 4.53. For SLREYNDFLEEVEEIPFNLTNNVD [V16P], the protein stability index was 4.18. Work on SLREYNDFLEEVEEIQFNLTNNVD [V16Q] yielded a protein stability index of 3.99. For SLREYNDFLEEVEEIRFNLTNNVD [V16R], the protein stability index was 3.04. With SLREYNDFLEEVEEISFNLTNNVD [V16S] the protein stability index was 4.58. SLREYNDFLEEVEEITFNLTNNVD [V16T] gave a protein stability index of 3.21. In the case of SLREYNDFLEEVEEIWFNLTNNVD [V16W], the protein stability index is reported as 2.83. SLREYNDFLEEVEEIYFNLTNNVD [V16Y] gave a protein stability index of 2.63. In the case of SLREYNDFLEEVEEIVANLTNNVD [F17A], the protein stability index is reported as 2.46. SLREYNDFLEEVEEIVCNLTNNVD [F17C] showed a protein stability index of 2.88. With SLREYNDFLEEVEEIVDNLTNNVD [F17D] the protein stability index was 3.2. For SLREYNDFLEEVEEIVENLTNNVD [F17E], the protein stability index was 3.34. With SLREYNDFLEEVEEIVGNLTNNVD [F17G] the protein stability index was 3.4. In the case of SLREYNDFLEEVEEIVHNLTNNVD [F17H], the protein stability index is reported as 3.15. SLREYNDFLEEVEEIVKNLTNNVD [F17K] showed a protein stability index of 2.38. Work on SLREYNDFLEEVEEIVLNLTNNVD [F17L] yielded a protein stability index of 2.19. In the case of SLREYNDFLEEVEEIVMNLTNNVD [F17M], the protein stability index is reported as 2.57. With SLREYNDFLEEVEEIVNNLTNNVD [F17N] the protein stability index was 2.16. SLREYNDFLEEVEEIVPNLTNNVD [F17P] gave a protein stability index of 4. SLREYNDFLEEVEEIVQNLTNNVD [F17Q] showed a protein stability index of 2.78. SLREYNDFLEEVEEIVRNLTNNVD [F17R] showed a protein stability index of 2.2. SLREYNDFLEEVEEIVSNLTNNVD [F17S] gave a protein stability index of 3.11. For SLREYNDFLEEVEEIVTNLTNNVD [F17T], the protein stability index was 3.16. For SLREYNDFLEEVEEIVVNLTNNVD [F17V], the protein stability index was 2.82. In the case of SLREYNDFLEEVEEIVWNLTNNVD [F17W], the protein stability index is reported as 1.95. SLREYNDFLEEVEEIVYNLTNNVD [F17Y] gave a protein stability index of 1.91.
